These results are taken from patent publication US20110150875A1.

The target in assay [1] is PCSK9-FLAG (Pan troglodytes (Chimpanzee); Homo sapiens (Human)) (UniProt A8T644). The assay is described as follows: AlphaScreen, His-tagged matrilin-2 at log [Matrilin] uM -3.294526 with PCSK9-FLAG; triplicate, SD 495.
The target is the same in assay [2]. In words: AlphaScreen competition, matrilin-2 at 34 nM; inhibition of PCSK9-Flag binding to His-tagged LDL receptor (competitor LDLR), relative to maximum signal without matrilin-2. (In Alpha technology, singlet oxygen from a donor bead excites a nearby acceptor bead.)
For assay [3] the target is unchanged. In words: AlphaScreen competition, matrilin-2 at 0.14 nM; inhibition of PCSK9-Flag binding to His-tagged LDL receptor (competitor LDLR), relative to maximum signal without matrilin-2.
Assay [4] has the same target. The assay is described as follows: AlphaScreen, His-tagged matrilin-2 at log [Matrilin] uM -0.4317983 with PCSK9-FLAG; triplicate, SD 2548.
Assay [5] shares this target. In words: AlphaScreen, His-tagged matrilin-2 at log [Matrilin] uM -0.9089195 with PCSK9-FLAG; triplicate, SD 3028.
Assay [6] shares this target. The assay is described as follows: AlphaScreen, His-tagged matrilin-2 at log [Matrilin] uM -2.817405 with PCSK9-FLAG; triplicate, SD 412.
For assay [7] the target is unchanged. In words: AlphaScreen, His-tagged matrilin-2 at log [Matrilin] uM -3.771647 with PCSK9-FLAG; triplicate, SD 220.
The target is the same in assay [8]. In words: AlphaScreen competition, matrilin-2 at 3.8 nM; inhibition of PCSK9-Flag binding to His-tagged LDL receptor (competitor LDLR), relative to maximum signal without matrilin-2.
Assay [9] has the same target. The assay is described as follows: AlphaScreen, His-tagged matrilin-2 at log [Matrilin] uM -1.386041 with PCSK9-FLAG; triplicate, SD 1634.
Assay [10] has the same target. In words: AlphaScreen, His-tagged matrilin-2 at log [Matrilin] uM -1.863162 with PCSK9-FLAG; triplicate, SD 1131.
For assay [11] the target is unchanged. The assay is described as follows: AlphaScreen, His-tagged matrilin-2 at log [Matrilin] uM -2.340283 with PCSK9-FLAG; triplicate, SD 469.
The target is the same in assay [12]. In words: AlphaScreen competition, matrilin-2 at 11 nM; inhibition of PCSK9-Flag binding to His-tagged LDL receptor (competitor LDLR), relative to maximum signal without matrilin-2.
Assay [13] shares this target. The assay is described as follows: AlphaScreen competition, matrilin-2 at 0.42 nM; inhibition of PCSK9-Flag binding to His-tagged LDL receptor (competitor LDLR), relative to maximum signal without matrilin-2.
Assay [14] shares this target. In words: AlphaScreen competition, matrilin-2 at 1.3 nM; inhibition of PCSK9-Flag binding to His-tagged LDL receptor (competitor LDLR), relative to maximum signal without matrilin-2.

UniProt A8T644, sequence (A8T644 31-152 limits assumed, chain 1 of 2): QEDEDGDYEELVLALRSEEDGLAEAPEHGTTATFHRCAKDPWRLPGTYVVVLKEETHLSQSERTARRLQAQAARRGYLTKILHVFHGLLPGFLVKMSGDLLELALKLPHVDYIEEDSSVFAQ
UniProt A8T644, sequence (A8T644 other isoform, or with tags, fused parts or gaps limits assumed, chain 2 of 2): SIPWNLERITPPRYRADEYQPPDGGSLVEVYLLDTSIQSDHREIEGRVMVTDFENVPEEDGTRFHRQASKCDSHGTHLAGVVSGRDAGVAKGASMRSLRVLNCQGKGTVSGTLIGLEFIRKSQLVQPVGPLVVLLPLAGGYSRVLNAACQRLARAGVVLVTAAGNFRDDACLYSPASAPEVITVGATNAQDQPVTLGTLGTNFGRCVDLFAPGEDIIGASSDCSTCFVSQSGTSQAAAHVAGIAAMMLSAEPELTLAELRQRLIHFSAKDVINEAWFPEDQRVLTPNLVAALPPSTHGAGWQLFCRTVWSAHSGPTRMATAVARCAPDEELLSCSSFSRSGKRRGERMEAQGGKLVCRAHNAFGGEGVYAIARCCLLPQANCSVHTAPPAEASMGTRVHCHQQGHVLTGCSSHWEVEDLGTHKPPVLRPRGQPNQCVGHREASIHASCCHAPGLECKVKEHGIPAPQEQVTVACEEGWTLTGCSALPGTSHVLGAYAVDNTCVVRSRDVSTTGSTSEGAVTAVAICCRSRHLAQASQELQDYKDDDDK

B1: His-tagged recombinant human matrilin-2 (mature, short isoform, Arg 24-Arg 937; R&D Systems Catalog Number 3044-MN) (protein, not shown: small tags and cut ends)
chain: RERSRGRSISRGRHARTHPQTALLESSCENKRADLVFIIDSSRSVNTHDYAKVKEFIVDILQFLDIGPDVTRVGLLQYGSTVKNEFSLKTFKRKSEVERAVKRMRHLSTGTMTGLAIQYALNIAFSEAEGARPLRENVPRVIMIVTDGRPQDSVAEVAAKARDTGILIFAIGVGQVDFNTLKSIGSEPHEDHVFLVANFSQIETLTSVFQKKLCTAHMCSTLEHNCAHFCINIPGSYVCRCKQGYILNSDQTTCRIQDLCAMEDHNCEQLCVNVPGSFVCQCYSGYALAEDGKRCVAVDYCASENHGCEHECVNADGSYLCQCHEGFALNPDKKTCTKIDYCASSNHGCQHECVNTDDSYSCHCLKGFTLNPDKKTCRRINYCALNKPGCEHECVNMEESYYCRCHRGYTLDPNGKTCSRVDHCAQQDHGCEQLCLNTEDSFVCQCSEGFLINEDLKTCSRVDYCLLSDHGCEYSCVNMDRSFACQCPEGHVLRSDGKTCAKLDSCALGDHGCEHSCVSSEDSFVCQCFEGYILREDGKTCRRKDVCQAIDHGCEHICVNSDDSYTCECLEGFRLAEDGKRCRRKDVCKSTHHGCEHICVNNGNSYICKCSEGFVLAEDGRRCKKCTEGPIDLVFVIDGSKSLGEENFEVVKQFVTGIIDSLTISPKAARVGLLQYSTQVHTEFTLRNFNSAKDMKKAVAHMKYMGKGSMTGLALKHMFERSFTQGEGARPLSTRVPRAAIVFTDGRAQDDVSEWASKAKANGITMYAVGVGKAIEEELQEIASEPTNKHLFYAEDFSTMDEISEKLKKGICEALEDSDGRQDSPAGELPKTVQQPTVQHRYLFEEDNLLRSTQKLSHSTKPSGSPLEEKHDQCKCENLIMFQNLANEEVRKLTQRLEEMTQRMEALENRLRYR
A word on the % inhibition: it is the relative decrease from the control value, in per cent. B1: the Alphascreen Signal (counts per second) stood at 18800 in assay [1]; 213000 in assay [4]; 222000 in assay [5]; 12900 in [6]; 20200 in [7]; 54000 in assay [9]. The Alphascreen Signal (counts per second) in [10] was determined as 14100; in assay [11], 10100. Further, the % inhibition in [2] is 50.7%; in [3], 0.1%; in [8] it was 17.1%; in [12], 36%; in assay [13], -0.4%; in [14] it was 5.2%.
